From paper PMC2150699 (The Journal of Cell Biology, 2000) come the findings set out here.

The target in experiment [1] is HT-WG (hexahistidine-tagged WG fragment of N-WASP, amino acids 1-277) (bovine, UniProt Q95107 1-277). Nature of the experiment: pull-down.
The target of experiment [2] is HT-WGP (hexahistidine-tagged WGP fragment of N-WASP, amino acids 1-396) (bovine, UniProt Q95107 1-396). Nature of the experiment: pull-down.
HT-WGP (hexahistidine-tagged WGP fragment of N-WASP, amino acids 1-396), sequence (Q95107 1-396): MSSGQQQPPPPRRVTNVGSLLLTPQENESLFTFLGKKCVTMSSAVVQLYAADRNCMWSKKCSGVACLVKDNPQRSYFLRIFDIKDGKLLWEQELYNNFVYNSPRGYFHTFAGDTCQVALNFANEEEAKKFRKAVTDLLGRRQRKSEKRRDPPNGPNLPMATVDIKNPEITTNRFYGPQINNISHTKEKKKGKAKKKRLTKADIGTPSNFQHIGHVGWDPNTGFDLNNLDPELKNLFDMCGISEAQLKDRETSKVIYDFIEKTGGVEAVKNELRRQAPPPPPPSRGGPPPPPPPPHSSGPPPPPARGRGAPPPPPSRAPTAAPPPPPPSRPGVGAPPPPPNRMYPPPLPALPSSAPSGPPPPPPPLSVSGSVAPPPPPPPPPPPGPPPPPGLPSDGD

HT-WG (hexahistidine-tagged WG fragment of N-WASP, amino acids 1-277), sequence (Q95107 1-277): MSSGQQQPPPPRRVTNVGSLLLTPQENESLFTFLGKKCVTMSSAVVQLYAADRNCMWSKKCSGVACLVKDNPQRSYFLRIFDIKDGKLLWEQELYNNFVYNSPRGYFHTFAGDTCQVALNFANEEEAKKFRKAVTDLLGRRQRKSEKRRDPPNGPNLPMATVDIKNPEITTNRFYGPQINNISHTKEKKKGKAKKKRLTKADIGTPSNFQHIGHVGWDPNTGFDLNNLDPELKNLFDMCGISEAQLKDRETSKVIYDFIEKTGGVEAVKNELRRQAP

B1: GST-VCA (GST fusion of the COOH-terminal VCA segment of bovine N-WASP, amino acids 392-505) (domain or fragment, UniProt Q95107 392-505, looked up)
chain: PSDGDHQVPTPAGSKAALLDQIREGAQLKKVEQNSRPVSCSGRDALLDQIRQGIQLKSVTDAPESTPPAPAPTSGIVGALMEVMQKRSKAIHSSDEDEDEDDDEDFEDDDEWED
As for B1, the binding result in experiment [1] and in experiment [2] was “binds” throughout.
